Reference: patent publication US20120053125

Experiments:
[1] = system: human I-1 (S67A), unphosphorylated
[2] = system: human I-1 (S67A/T75A)
[3] = system: human phosphatase inhibitor-1 (I-1) wild type, dephosphorylated
[4] = system: human I-1 (T75A), unphosphorylated
[5] = system: T1, human I-1 (S67D/T75D)
T1 sequence: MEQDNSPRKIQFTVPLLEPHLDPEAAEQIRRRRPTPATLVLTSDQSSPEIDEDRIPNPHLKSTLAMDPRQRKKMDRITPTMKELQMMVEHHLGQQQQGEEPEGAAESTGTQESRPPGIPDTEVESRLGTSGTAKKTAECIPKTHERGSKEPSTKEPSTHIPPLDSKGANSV

Substance | 32P incorporated per protein at steady state (20-45 min), percent of wild type [1] | stoichiometry of phosphorylation at 45 min [1] | 32P incorporation upon PKC-α incubation [2] | stoichiometry of phosphorylation at 45 min [3] | 32P incorporated per protein at 45 min, percent of wild type [4] | stoichiometry of phosphorylation at 45 min [4] | 32P incorporation upon PKA incubation, decrease against wild-type [5]
Protein Kinase C alpha (PKC-α), Upstate Biotechnology | I-1 (S67A) incorporated 40±8.6% of the radioactivity levels present in wild types (100%) | the incorporation of Pi into I-1(S67A) and I-1(T75A) were reduced to 0.35 and 0.30 mol Pi/mol protein, respectively | mutation of both Ser-67 and Thr-75 to Ala abolishes ^32P-incorporation into I-1 | I-1 wild-type was phosphorylated by PKC-α for 45 min to a stoichiometry of 0.88 mol Pi/mol protein | I-1 (T75A) incorporated 33.8±12.7% of the levels in wild type (100%) | the incorporation of Pi into I-1(S67A) and I-1(T75A) were reduced to 0.35 and 0.30 mol Pi/mol protein, respectively | –
Protein Kinase A (PKA, cAMP-dependent protein kinase), Upstate Biotechnology | – | – | – | – | – | – | the double mutant incorporated 29% less radioactivity than the wild-type
